Here are results for 18 molecules from patent US11833164B2, “Methods of treating Fabry disease in patients having a mutation in the GLA gene” (Amicus Therapeutics, Inc., priority 2019, dated 2023).

The chains are these.
B1: G325A (protein)
chain: MQLRNPELHLGCALALRFLALVSWDIPGARALDNGLARTPTMGWLHWERFMCNLDCQEEPDSCISEKLFMEMAELMVSEGWKDAGYEYLCIDDCWMAPQRDSEGRLQADPQRFPHGIRQLANYVHSKGLKLGIYADVGNKTCAGFPGSFGYYDIDAQTFADWGVDLLKFDGCYCDSLENLADGYKHMSLALNRTGRSIVYSCEWPLYMWPFQKPNYTEIRQYCNHWRNFADIDDSWKSIKSILDWTSFNQERIVDVAGPGGWNDPDMLVIGNFGLSWNQQVTQMALWAIMAAPLFMSNDLRHISPQAKALLQDKDVIAINQDPLAKQGYQLRQGDNFEVWERPLSGLAWAVAMINRQEIGGPRSYTIAVASLGKGVACNPACFITQLLPVKRKLGFYEWTSRLRSHINPTGTVLLQLENTMQMSLKDLL
B2: Y329H (protein)
chain: B1 chain with A325G, Y329H
B3: G325C (protein)
chain: B1 chain with A325C
B4: K326Q (protein)
chain: B1 chain with A325G, K326Q
B5: Q330K (protein)
chain: B1 chain with A325G, Q330K
B6: Q330H (protein)
chain: B1 chain with A325G, Q330H
B7: Q327P (protein)
chain: B1 chain with A325G, Q327P
B8: K326T (protein)
chain: B1 chain with A325G, K326T
B9: K326R (protein)
chain: B1 chain with A325G, K326R
B10: Y329D (protein)
chain: B1 chain with A325G, Y329D
B11: K326M (protein)
chain: B1 chain with A325G, K326M
B12: Y329C (protein)
chain: B1 chain with A325G, Y329C
B13: Y329N (protein)
chain: B1 chain with A325G, Y329N
B14: K326E (protein)
chain: B1 chain with A325G, K326E
B15: Y329F (protein)
chain: B1 chain with A325G, Y329F
B16: Q327H (protein)
chain: B1 chain with A325G, Q327H
B17: G325V (protein)
chain: B1 chain with A325V
B18: Q330E (protein)
chain: B1 chain with A325G, Q330E

Numbering of substitutions follows the chain as printed. In names and notes the source's numbering stands.

The first assay relates to mutant form of α-Gal A expressed in HEK-293 cells. Kind of assay: HEK assay (GLP HEK / Migalastat Amenability Assay): α-Gal A activity in lysates of transiently transfected HEK-293 cells incubated with or without 10 μM migalastat. In kind it is cell-based, human. Particulars: 10 μM migalastat versus baseline. In short, it runs like this: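 Activity reported as 4-MU released (nmol/mg/hr), mean±SEM, from lysates of transiently transfected HEK-293 cells expressing mutant α-Gal A, cultured with or without 10 μM migalastat.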
With B1, the “Absolute increase (% WT)” value amounted to 34.4 % WT and the Relative increase was 1.5.

Consider B2, for which the “Absolute increase (% WT)” value came out at 16.2 % WT and the Relative increase stood at 1.4.

With B3, the “Absolute increase (% WT)” value stood at 34.5 % WT and the Relative increase is reported as 1.7.

Consider B4, for which the “Absolute increase (% WT)” value worked out at 26.1 % WT and the Relative increase was found to be 1.3.

In the case of B5, the “Absolute increase (% WT)” value is listed as 21.1 % WT and the Relative increase was determined as 1.3.

In the case of B6, the “Absolute increase (% WT)” value is recorded as 40.8 % WT and the Relative increase came out at 2.2.

Turning to B7, the “Absolute increase (% WT)” value turned out to be 36.4 % WT and the Relative increase stood at 2.4.

For the molecule B8, the “Absolute increase (% WT)” value is on record as 26.4 % WT and the Relative increase worked out at 1.4.

As for B9, the “Absolute increase (% WT)” value amounted to 48.0 % WT and the Relative increase stood at 1.8.

Take B10: the “Absolute increase (% WT)” value worked out at 12.5 % WT and the Relative increase amounted to 3.9.

For B11, the “Absolute increase (% WT)” value stood at 63.2 % WT and the Relative increase was 3.7.

For the molecule B12, the “Absolute increase (% WT)” value is given as 7.8 % WT and the Relative increase came out at 1.3.

Consider B13, for which the “Absolute increase (% WT)” value came out at 15.6 % WT and the Relative increase is 1.7.

With B14, the “Absolute increase (% WT)” value was found to be 25.3 % WT and the Relative increase is 1.4.

As to B15, the “Absolute increase (% WT)” value came out at 16.6 % WT and the Relative increase stood at 1.5.

Take B16: the “Absolute increase (% WT)” value came out at 7.4 % WT.

Regarding B17, the “Absolute increase (% WT)” value was 17.1 % WT and the Relative increase is 9.3.

For B18, the “Absolute increase (% WT)” value was 19.9 % WT and the Relative increase came out at 1.7.

Still in this assay, the particulars now being: absence of migalastat; percentage of baseline wild-type α-Gal A activity; mean ± SEM.
Regarding B1, the “Baseline α-Gal A activity (% WT)” value was determined as 64.9 ± 3.8 % WT.

As for B2, the “Baseline α-Gal A activity (% WT)” value was found to be 47.2 ± 3.8 % WT.

Consider B3, for which the “Baseline α-Gal A activity (% WT)” value is 51.4 ± 1.7 % WT.

For B4, the “Baseline α-Gal A activity (% WT)” value is reported as 78 ± 3 % WT.

As to B5, the “Baseline α-Gal A activity (% WT)” value came to 71 ± 2.7 % WT.

Take B6: the “Baseline α-Gal A activity (% WT)” value worked out at 33.1 ± 2.8 % WT.

With B7, the “Baseline α-Gal A activity (% WT)” value is reported as 26.2 ± 1.8 % WT.

For the molecule B8, the “Baseline α-Gal A activity (% WT)” value is reported as 69.6 ± 2.4 % WT.

With B9, the “Baseline α-Gal A activity (% WT)” value is on record as 61.7 ± 3.4 % WT.

In the case of B10, the “Baseline α-Gal A activity (% WT)” value is reported as 4.2 ± 0.2 % WT.

Take B11: the “Baseline α-Gal A activity (% WT)” value was found to be 24.4 ± 1.6 % WT.

B12: the “Baseline α-Gal A activity (% WT)” value was 31.2 ± 1.5 % WT.

Consider B13, for which the “Baseline α-Gal A activity (% WT)” value amounted to 21.8 ± 1.5 % WT.

Regarding B14, the “Baseline α-Gal A activity (% WT)” value is 55.6 ± 2.6 % WT.

On to B15, for which the “Baseline α-Gal A activity (% WT)” value came to 30.6 ± 1.5 % WT.

As for B17, the “Baseline α-Gal A activity (% WT)” value was 2.2 ± 0.2 % WT.

Consider B18, for which the “Baseline α-Gal A activity (% WT)” value turned out to be 26.4 ± 1.5 % WT.

The same assay, now with this note: lysates of HEK-293 cells transiently transfected with the mutant form, incubated 5 days in absence of migalastat; mean ± SEM.
Regarding B1, the “Baseline α-Gal A activity” value turned out to be 18183 ± 1254 nmol/mg/h.

For the molecule B2, the “Baseline α-Gal A activity” value is 13757 ± 963 nmol/mg/h.

As to B3, the “Baseline α-Gal A activity” value was 14482 ± 695 nmol/mg/h.

Turning to B4, the “Baseline α-Gal A activity” value was 22075 ± 1209 nmol/mg/h.

As to B5, the “Baseline α-Gal A activity” value came to 20289 ± 720 nmol/mg/h.

In the case of B6, the “Baseline α-Gal A activity” value worked out at 9296 ± 649 nmol/mg/h.

As for B7, the “Baseline α-Gal A activity” value amounted to 7775 ± 561 nmol/mg/h.

Regarding B8, the “Baseline α-Gal A activity” value came out at 19442 ± 739 nmol/mg/h.

As for B9, the “Baseline α-Gal A activity” value stood at 17744 ± 923 nmol/mg/h.

As to B10, the “Baseline α-Gal A activity” value was 1249 ± 66 nmol/mg/h.

Regarding B11, the “Baseline α-Gal A activity” value came out at 8482 ± 500 nmol/mg/h.

Take B12: the “Baseline α-Gal A activity” value came out at 9148 ± 414 nmol/mg/h.

In the case of B13, the “Baseline α-Gal A activity” value was 6448 ± 436 nmol/mg/h.

For the molecule B14, the “Baseline α-Gal A activity” value was 15541 ± 832 nmol/mg/h.

On to B15, for which the “Baseline α-Gal A activity” value was 10368 ± 646 nmol/mg/h.

Take B16: the “Baseline α-Gal A activity (nmol/mg/hr)” value was “BLD (“BLD” indicates that the mean α-Gal A activity was below the limit of detection (<142 nmol/mg/hr))”.

Turning to B17, the “Baseline α-Gal A activity” value was determined as 572 ± 30 nmol/mg/h.

As to B18, the “Baseline α-Gal A activity” value stood at 7500 ± 345 nmol/mg/h.

Still in this assay, the particulars now being: lysates of HEK-293 cells transiently transfected with the mutant form, incubated 5 days with 10 μM migalastat; mean ± SEM.
Turning to B1, the “10 μM migalastat α-Gal A activity” value worked out at 27523 ± 1456 nmol/mg/h.

For B2, the “10 μM migalastat α-Gal A activity” value stood at 18672 ± 772 nmol/mg/h.

As for B3, the “10 μM migalastat α-Gal A activity” value came to 23873 ± 1021 nmol/mg/h.

For B4, the “10 μM migalastat α-Gal A activity” value is 29168 ± 1869 nmol/mg/h.

With B5, the “10 μM migalastat α-Gal A activity” value came to 26149 ± 1074 nmol/mg/h.

With B6, the “10 μM migalastat α-Gal A activity” value was determined as 20752 ± 592 nmol/mg/h.

For B7, the “10 μM migalastat α-Gal A activity” value was 18612 ± 1075 nmol/mg/h.

As to B8, the “10 μM migalastat α-Gal A activity” value came out at 26653 ± 877 nmol/mg/h.

Turning to B9, the “10 μM migalastat α-Gal A activity” value was 31690 ± 1112 nmol/mg/h.

Consider B10, for which the “10 μM migalastat α-Gal A activity” value amounted to 4917 ± 181 nmol/mg/h.

As to B11, the “10 μM migalastat α-Gal A activity” value came out at 31204 ± 1979 nmol/mg/h.

With B12, the “10 μM migalastat α-Gal A activity” value was determined as 11442 ± 480 nmol/mg/h.

As for B13, the “10 μM migalastat α-Gal A activity” value is 11035 ± 429 nmol/mg/h.

In the case of B14, the “10 μM migalastat α-Gal A activity” value came out at 22340 ± 828 nmol/mg/h.

On to B15, for which the “10 μM migalastat α-Gal A activity” value is 15566 ± 603 nmol/mg/h.

In the case of B16, the “10 μM migalastat α-Gal A activity” value amounted to 2197 ± 226 nmol/mg/h.

Consider B17, for which the “10 μM migalastat α-Gal A activity” value is 5333 ± 294 nmol/mg/h.

With B18, the “10 μM migalastat α-Gal A activity” value amounted to 13086 ± 589 nmol/mg/h.

The same assay, now with this note: with 10 μM migalastat, 5 days; percentage of baseline wild-type α-Gal A activity; mean ± SEM.
As to B1, the “10 μM migalastat α-Gal A activity (% WT)” value is 99.2 ± 5.4 % WT.

Regarding B2, the “10 μM migalastat α-Gal A activity (% WT)” value turned out to be 63.4 ± 2.6 % WT.

With B3, the “10 μM migalastat α-Gal A activity (% WT)” value came out at 85.9 ± 4 % WT.

On to B4, for which the “10 μM migalastat α-Gal A activity (% WT)” value is recorded as 104.1 ± 5.7 % WT.

In the case of B5, the “10 μM migalastat α-Gal A activity (% WT)” value came to 92.1 ± 4.2 % WT.

Turning to B6, the “10 μM migalastat α-Gal A activity (% WT)” value worked out at 73.9 ± 3.6 % WT.

B7: the “10 μM migalastat α-Gal A activity (% WT)” value worked out at 62.6 ± 3.1 % WT.

For B8, the “10 μM migalastat α-Gal A activity (% WT)” value turned out to be 96 ± 3.7 % WT.

With B9, the “10 μM migalastat α-Gal A activity (% WT)” value was 109.7 ± 2.9 % WT.

Regarding B10, the “10 μM migalastat α-Gal A activity (% WT)” value was 16.7 ± 0.6 % WT.

As to B11, the “10 μM migalastat α-Gal A activity (% WT)” value was 87.6 ± 3.5 % WT.

With B12, the “10 μM migalastat α-Gal A activity (% WT)” value turned out to be 38.9 ± 1.6 % WT.

Regarding B13, the “10 μM migalastat α-Gal A activity (% WT)” value was 37.4 ± 1.2 % WT.

Turning to B14, the “10 μM migalastat α-Gal A activity (% WT)” value was determined as 80.9 ± 3.9 % WT.

On to B15, for which the “10 μM migalastat α-Gal A activity (% WT)” value was found to be 47.1 ± 2.8 % WT.

For the molecule B16, the “10 μM migalastat α-Gal A activity (% WT)” value turned out to be 7.4 ± 0.7 % WT.

With B17, the “10 μM migalastat α-Gal A activity (% WT)” value came to 19.3 ± 1.1 % WT.

For B18, the “10 μM migalastat α-Gal A activity (% WT)” value is 46.4 ± 2.6 % WT.
